1 molecule from PMC9513282 can be followed below.

HiLyteFluor 488 = N-terminal fluorophore; QXL 520 = dark quencher

The target in assay [1] is AMUC_1438 CAT construct (residues 41-427) (Akkermansia muciniphila) (UniProt B2UKY7).
Assay [2] addresses AMUC_1438 FL construct (Akkermansia muciniphila) (UniProt B2UKY7).

With {HiLyteFluor 488}-TPSPSTPPTK-{QXL 520} (not fully specified (residue 5); printed as TPSP**S**TPPTK) [IgA1FRET, custom FRET O-glycopeptide substrate based on the IgA1 hinge region], the KM of hydrolysis of the IgA1FRET O-glycopeptide (FRET dequenching, steady-state kinetics, Michaelis-Menten fit; 1 μM enzyme, 0 to 1000 μM substrate, 20 mM Tris-HCl pH 7.0, 100 μM zinc chloride) is 300 μM in assay [1] and 122 μM in assay [2].
